Results: the DeepSol protein solubility set

Assay: soluble on expression in E. coli; label from the status in PepcDB or PDB records
In the case of “MGSDKIHHHHHHMTARHSDCVHCLMRGQSIFAGLSREEVCELGMDVQDIHVPAGTTIYHEGDPAQYAYTLRQGGIKLVKSLPNGHAQIVRLLHHGDLLGFEGLRTDRHRHSAITLTGTDLCRLELRALDALSQRLPAVREAIFARWQQALQEAEDRIVELGAKKADARLATFLCQWVGAYPQQRAAPFPLTRQDLGEFLGLSTEHVSRIMADLKRHRLLHEHKGQIEIPDPQNLFLYASSDGTRA”, the “soluble on expression in E. coli” value is reported as “not soluble”.
In the case of “MGHHHHHHSHMTWKGGGGWMAAVTQGPGITWGSLLPSAVRQGEQKCKNTDVSIFLNWGVEGCLLTASKELTVEGPQCIPPLPESLSPLGPPGSQSSEETDPSCFNSCCCFSLWAGPGRGRAEQAPGGLQSQLDLAVSPAGSPADTGEVG”, the “soluble on expression in E. coli” value is reported as “not soluble”.
For “MLLGEGAFGQVFKGILRGPNGQVIPVAVKQLKANAIDEEREEFVREIQMMQTVGQHDNIVTMYGYCMDEQLQCMIMEYVPYGDLKHYLQNMRKEKDSDSAIDSKEFLSFTNQIACGMAHLESVGIIHRDLAARNILVGTGKVLKISDFGMSRPGVYIKMSKGVIPLRWLSPEAIKDNTYSNKSDVWAFGVLLWEIATLGGFPYNNVADKDILNQLTEGMRLEQPAKCSDDMYILMKSCWNLKAEDRPSFLAILSKIEQIANVDADAPPSDPPAKDV”, the “soluble on expression in E. coli” value was “not soluble”.
With “MNKKDFLDFLNQNILILDGATGTELQKRGMPGGVCPEMWVIENPDVIMDIQKDYINAGSNAVYTCTFGGNRIKLSEFGLGDKVVEINKKLAQLSRKAAGEKGLVAGDLAPTGRFVRPFGDMPFEEAVDVYKEQVKGLLEGGVDFFVIETMMDIQEARAALLAVKESCDLPVCVSMTFDESGRTLTGTDSVSALIILQSLGADVVGCNCSTGPQDMIKIIREMKPYAKVPLLAKPNAGLPKLIDGKTRFDMEPEEFGSYIKEFVEAGVNLLGGCCGTSPVYIEQIRKNIEGLKPIPPQPKEICAVASARKTVFVDANEPVVVVGERINPTGKKKLQEELRQGMTSLVRQFAVEQVEKGADILDVNVGMPGIDEKETMVKVVELLSSITDAPLCLDSSSPEVLEAALRIYPGRALINSISAEKVKIEKLLPIAAKYGAAFILLPLGDAGVPKSAGERCKIVEEVFNEASKWGYTKKDVIVDGLVMTVSADQEAAVETLKVIEWCTQSFGCGTIVGLSNVSFGMPERAWINSAFLAMAIGYGLTMAILNPSSDTLMSIKMASDVLKVKDRNSKKYIEHFAALKSDKPQVVEKKDTASPVEKVYDAVVKGDRENIRKYIDDALKDGTEPSIIVDKYLIPAITHVGDLYDRKEYFLPQLIQSAETMKEAFGILEPLLKKEPVDEKGNKVKVILATVKGDIHDIGKNIVGLMLRNYGFEVYDLGKDVSAEEIVKKAKETNAPIIGLSALMTTTMLEMREVVSLVRQEGLNAKIMIGGAVVNADYAKEIGADGYSEDAYGAVKLASKLAGI” the “soluble on expression in E. coli” value was “soluble”.
For “MTMTTMPESLNSPVSGKAVFMEFGPPNQQMSPSPMSHGHYSMHCLHSAGHSQPDGAYSSASSFSRPLGYPYVNSVSSHASSPYISSVQSYPGSASLAQSRLEDPGQDLVPKQAIQVQEADEAGWGGSGG”, the “soluble on expression in E. coli” value was “soluble”.
With “SNAMLNIVLFEPEIPPNTGNIIRLCANTGCQLHLIKPLGFTWDDKRLRRAGLDYHEFADIKHHHDYQAFLDSEKLDSTQPARLFALTTKGTPAHSAVSYQANDYLLFGPETRGLPAYILDALPAQQKIRIPMQADSRSMNLSNAVSVVVYEAWRQLGYPGALLKE” the “soluble on expression in E. coli” value was “soluble”.
For “MSLKRIDRIYMYVKEKTAHLTKAEYDQGVTTQEIAEVLGIQRTNSSKDLNQLVREGKLIKTDGRPVRYIYQTLVTHVKPVTKHVVSYKETPVSEEKNTLQIDTKDIFAKIIGANGSMKNSVEQAKAAILYPPRGLNCLITGPTGSGKTYFAHAMYHFAKAHHVIDEETELIVFNCADYANNPELLMSHLFGYAKGAFTGADEEKMGIIDQADGGMLFLDEIHRLPPEGQEMIFYFMDHGTYSRLGETTKSHEANVRIVGATTEDPGSSLLETFVRRIPINIKLPAFEKRPANEKVDLVKIMIAHEANRTQRKISLTEDVAKALIGSVTYGNIGQLKSNIQLVCARGFLNHMQSPEISITIDDLTEGIRSGLIQLASNRSAMAELSKILEPKITVAPNEGHHHHHH”, the “soluble on expression in E. coli” value was “soluble”.
With “MNRDIGKNAERELVSILRGEGFNAVRIPTSNSSPNPLPDIFATKGNTLLSIECKSTWENKVKVKEHQVRKLLDFLSMFTMKGVPLIAIKFKQVHEWRVLVPEKAEDIIVTIDNSIPIEDLFKILEKRIEEKILTP” the “soluble on expression in E. coli” value was “soluble”.
For “MPFDFETVLNRRHTNAVKWDVADDELPMWVADMDFETAPVIKQALIKRAQFGVFGYEEVPMAYYEAVADWWATEHNFRPQIEWLMFCTGVVPAISSIVRKMTAAGDNVLVQAPVYNIFYHSIENNGRHTLSSDLVARDASYAIDWDDLTKKLADPLTTMMILCNPQNPIGVVWSRATLQRLGELCLKYHVLVVADEIHCDLTLNGNAYTPFSSLTAPVAHNSISCISPSKTFNVAALHAATLIIPDAHVRALVSRGINNDELAEPNSFAIPASIAAYTEGHDWVAALRTKLAANQRQVQTYLTAELPQVKLVEAQATYLLWLDVSQVTTDSAALAAFIRQRTGLFLSAGDVYRGDGNRFLRLNVACPTTTLTDGLARLKAGITAYQQVQA”, the “soluble on expression in E. coli” value was “not soluble”.
In the case of “MAKKEIEPKTEQAKRLRLIRKSLQLHRDQIATRLGINKAIYDHAERGTTFPNVEFLTALSQQLKVNLNWFITGNGEMFTDMAKAKAAGFKPQAIPAGLMKRLGHLAYTTYRDAKITLPPEDVAELAAGLYGKLQELIYNINDMEEVEATLPLLKLHLKRQVEAEKAH”, the “soluble on expression in E. coli” value is reported as “not soluble”.
In the case of “ASMTGNECPELQPPVHGKIEPSQAKYFFKDQVLVSCDTGYKVLKDNVEMDTFQIECLKDGTWSNKIPTCKIVDCRAPGELEHGLITFSTRNNLTTYKSEIKYSCQEPYYKMLNNNTGIYTCSAQGVWMNKVLGRSLPTCLPVCGLPKFSRKLMAR”, the “soluble on expression in E. coli” value is reported as “soluble”.
For “MTKKYDLHCHSTASDGVLSPTELVHRAYAQGVNVLALCDHDTIAGIDEAEIAAKEVGIELITGVEISTNWEGRGIHIVGLNFDKTHPKMTALLQSQKALREKRAVEIGDKLEKAGIPNAYDGAKALADGEVTRAHYARYLVQIGKVSNDGQAFKRYLGQGKSAFVKAEWADIPTAIETIHAAGGIAIIAHPLRYNMTGKWVRKLIVDFKAWGGDGMEMADCGQTKDQRQMLARWAKEFDLQGSVGSDFHFPCGWIELGKNLDLVDSVIPVWEKFLEHHHHHH”, the “soluble on expression in E. coli” value was “soluble”.
For “MRKLTAMLVASSLALGAAGLAHANEAPKGPGSEHKMMMKEGREHRGMMGSDAMFKELNLTEAQKQQIKDIMKDSREKMHKAMQDDRRDMHSLVASDTFDAAKAQAQLDKADAAHKARMLSGLETKNKIYNVLTPEQKKQYNDSFEKRLTQPPKPDGKPVPAELEHHHHHH”, the “soluble on expression in E. coli” value was “soluble”.
For “HHYVKGELKIAASFTIGEYILPPLLAQLQKLYPELNLDVMIGNTEEVSERVRMLQADIGLIEGHTNENELEIEPFMEDEMCIAAPNQHPLAGRKEISISDLQNEAWVTREKGSGTREYLDHVLSSNGLRPKSMFTISSNQGVK”, the “soluble on expression in E. coli” value was “not soluble”.
For “MGSDKIHHHHHHMMFKWPWKADDESGNAEMPWEQALAIPVLAHLSSTEQHKLTQMAARFLQQKRLVALQGLELTPLHQARIAMLFCLPVLELGIEWLDGFHEVLIYPAPFIVDDEWEDDIGLVHNQRVVQSGQSWQQGPVVLNWLDIQDSFDASGFNLVVHEVAHKLDTRNGDRASGVPLIPLREVAGWEHDLHAAMNNIQDEIDLVGESAASIDAYAATDPAECFAVLSEYFFSAPELFAPRFPALWQRFCHFYRQDPLARRRENGLQDEGDRRIVH”, the “soluble on expression in E. coli” value was “not soluble”.
For “MSDGFSVDPAELEGFAGVAEGHAGTAGQIKGLVDRADVGDKSWGVVGLFVKSTYTGMLGDLKELFGDLEEGLRGVGERFRATAEDYRGPEEAIQRAFDGIDTGSGGR”, the “soluble on expression in E. coli” value was “not soluble”.
With “MTDNTLTPQMLTGLSTDHLVVLSGAHRLQPQAAEAFQAMQQAAKVAGFDLQPASTFRDFGRQLAIWNGKFRGERPVLDQDSQPIDIFSLDTAARCEAILRWSALPGTSRHHWGSDLDIYDPSRLPTGEKLQLEPWEYDAGGYFYPLTQWLSAHMAEFGFYRPFATDNGGVAVEPWHLSYRPLAEQAEHLLTPKILLAAWQSQDVAGSEWLASHLPMIFSRFIYLK” the “soluble on expression in E. coli” value was “not soluble”.
